The values below come from patent US20260242504A1 (published 2026).

To fix the notation:
T1: recombinant human 5T4 protein (5T4/His) (UniProt Q13641 32-355)
T1 chain: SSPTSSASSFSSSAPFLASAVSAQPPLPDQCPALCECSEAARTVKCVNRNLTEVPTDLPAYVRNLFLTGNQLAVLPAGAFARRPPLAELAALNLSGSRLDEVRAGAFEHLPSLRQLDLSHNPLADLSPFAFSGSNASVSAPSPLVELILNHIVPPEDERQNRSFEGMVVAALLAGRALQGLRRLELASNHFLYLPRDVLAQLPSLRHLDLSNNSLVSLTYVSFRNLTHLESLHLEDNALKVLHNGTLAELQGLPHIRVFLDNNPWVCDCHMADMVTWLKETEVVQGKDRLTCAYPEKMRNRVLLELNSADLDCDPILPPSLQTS

B1: 53D tribody (other)
chain 1: QVQLVQSGAEVKKPGASVKVSCKASGYSFTSYYMHWVKQSPGQGLEWIGRINPNNGVTLYNQKFKDRVTMTRDTSISTAYMELSRLRSDDTAVYYCARSTMITNYVMDYWGQGTLVTVSSASTKGPSVFPLAPSSKSTSGGTAALGCLVKDYFPEPVTVSWNSGALTSGVHTFPAVLQSSGLYSLSSVVTVPSSSLGTQTYICNVNHKPSNTKVDKKVEPKSCDKTHTGPGGGSPGQVQLVQSGAELKKPGASVKVSCKASGYTFTRYTMHWVRQAPGQCLEWMGYINPSRGYTNYNQKFKDKATLTADKSTSTAYMELRSLRSDDTAVYYCARYYDDHYSLDYWGQGTLVTVSSASGGGGSGGGGSGGGGSAGDIQLTQSPSILSASVGDRVTITCRASSSVSYMNWYQQKPGKAPKRWIYDTSKVASGVPYRFSGSGSGTEYTLTISSMQPEDFATYYCQQWSSNPLTFGCGTKVEIKSG
chain 2: not shown
B2: 53G tribody (other)
chain 1: QVQLVQSGAEVKKPGASVKVSCKASGYSFTSYYMHWVKQSPGQGLEWIGRINPNNGVTLYNQKFKDRVTMTRDTSISTAYMELSRLRSDDTAVYYCARSTMITNYVMDYWGQGTLVTVSSASTKGPSVFPLAPSSKSTSGGTAALGCLVKDYFPEPVTVSWNSGALTSGVHTFPAVLQSSGLYSLSSVVTVPSSSLGTQTYICNVNHKPSNTKVDKKVEPKSCDKTHTGPGGGSPGQVQLVQSGAELKKPGASVKVSCKASGYTFTRYTMHWVRQAPGQCLEWMGYINPSRGYTNYNQKFKDKATLTADKSTSTAYMELRSLRSDDTAVYYCARYYDDHYSLDYWGQGTLVTVSSASGGGGSGGGGSGGGGSAGDIQLTQSPSILSASVGDRVTITCRASSSVSYMNWYQQKPGKAPKRWIYDTSKVASGVPYRFSGSGSGTEYTLTISSMQPEDFATYYCQQWSSNPLTFGCGTKVEIKSG
chain 2: not shown
B3: 53P tribody (other)
chain 1: QVQLVQSGAEVKKPGASVKVSCKASGYSFTSYYMHWVKQSPGQGLEWIGRINPNNGVTLYNQKFKDRVTMTRDTSISTAYMELSRLRSDDTAVYYCARSTMITNYVMDYWGQGTLVTVSSASTKGPSVFPLAPSSKSTSGGTAALGCLVKDYFPEPVTVSWNSGALTSGVHTFPAVLQSSGLYSLSSVVTVPSSSLGTQTYICNVNHKPSNTKVDKKVEPKSCDKTHTGPGGGSPGQVQLVQSGAELKKPGASVKVSCKASGYTFTRYTMHWVRQAPGQCLEWMGYINPSRGYTNYNQKFKDKATLTADKSTSTAYMELRSLRSDDTAVYYCARYYDDHYSLDYWGQGTLVTVSSASGGGGSGGGGSGGGGSAGDIQLTQSPSILSASVGDRVTITCRASSSVSYMNWYQQKPGKAPKRWIYDTSKVASGVPYRFSGSGSGTEYTLTISSMQPEDFATYYCQQWSSNPLTFGCGTKVEIKSG
chain 2: not shown

The test has as its target T1, recombinant human 5T4 protein (5T4/His). Kind of test: ELISA. Background: An ELISA detects its analyte on a solid surface through an enzyme-linked reagent.
B1: the EC50 – broadly, the concentration that produces a half-maximal response – was determined as 790 pM. Take B2: the EC50 was 780 pM.

On to B3, for which the EC50 came to 840 pM.
